The assay has as its target T1, Human TNF (human, UniProt P01375 77-233).
T1 construct: Biotinylated in the ELISA; purified recombinant protein in SPR; also called h TNF; huTNF
Nature of the assay: in vitro display selection on recombinant human TNF.

T1 sequence (P01375 77-233 limits assumed): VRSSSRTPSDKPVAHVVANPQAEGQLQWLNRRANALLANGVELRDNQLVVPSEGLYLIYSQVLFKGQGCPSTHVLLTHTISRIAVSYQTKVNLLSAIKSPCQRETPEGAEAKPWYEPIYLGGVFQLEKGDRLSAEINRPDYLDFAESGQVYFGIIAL

B1: AE11-5 (antibody, V domains shown)
VH: EVQLVQSGAEVKKPGSSAKVSCKASGGTFSSYAISWVRQAPGQGLEWMGGIIPILGTANYAQKFLGRVTITADESTSTVYMELSSLRSEDTAVYYCARGLYYDPTRADYWGQGTLVTVSS
VL: DIVMTQSPDFHSVTPKEKVTITCRASQSIGSSLHWYQQKPDQSPKLLIRHASQSISGVPSRFSGSGSGTDFTLTIHSLEAEDAATYYCHQSSSSPPPTFGQGTQVEIK
notes: Fully human anti-TNF antibody isolated by in vitro display; also called AE11-5 VH; AE11-5 VL
With B1, the binding result is “binds”.

B2: AE11-7 (antibody, V domains shown)
VH: EVQLVQSGAEVKKPGASVKVSCKTSGYSLTQYPIHWVRQAPGQRPEWMGWISPGNGNTKLSPKFQGRVTLSRDASAGTVFMDLSGLTSDDTAVYFCTSVDLGDHWGQGTLVTVSS
VL: DIVMTQSPEFQSVTPKEKVTITCRASQSIGSSLHWYQQKPDQSPKLLINYASQSFSGVPSRFSGGGSGTDFTLTINSLEAEDAATYYCHQSSNLPITFGQGTRLEIK
notes: Fully human anti-TNF antibody isolated by in vitro display; also called AE11-7 VH; AE11-7 VL
For the molecule B2, the binding result is “binds”.

B3: TNF-JK1 (antibody, V domains shown)
VH: EVQLVESGGGLVQPGGSLRLSCATSGFTFNNYWMSWVRQAPGKGLEWVANINHDESEKYYVDSAKGRFTISRDNAEKSLFLQMNSLRAEDTAVYYCARIIRGRVGFDYYNYAMDVWGQGTLVTVSS
VL: DIRLTQSPSPLSASVGDRVTITCRASQSIGNYLNWYQHKPGKAPKLLIYAASSLQSGVPSRFSGTGSGTDFTLTISSLQPEDFATYYCQESYSLIFAGGTKVEIK
notes: Fully human anti-TNF antibody isolated by in vitro display; also called TNF-JK1 VH; TNF-JK1 VL
Regarding B3, the binding result was “binds”.

Source of the values: US20140161804A1 (AbbVie / Abbott, published 2014).
